US20240425848

Target: histone H3 trimethylated at lysine 9 (H3K9me3) in native chromatin of Caki-1 cells (UniProt P68431)

Substance	Ec: global enrichment of the ATAC-seq tagmentation signal over H3K9me3-marked regions, log2(ratio) over genomic Input, Caki-1; subscript printed as 0, first E line of the box	Ec: global enrichment of the ATAC-seq tagmentation signal over H3K9me3-marked regions, log2(ratio) over genomic Input, Caki-1 [Continued) e]	GET-seq, sequential Tn5 then TnH tagmentation, compared with ChIP-seq profiles	Mc: modal enrichment of the ATAC-seq tagmentation signal over H3K9me3-marked regions, log2(ratio) over genomic Input, Caki-1; subscript printed as 0, first M line of the box, agrees with the mode of t	Mc: modal enrichment of the ATAC-seq tagmentation signal over H3K9me3-marked regions, log2(ratio) over genomic Input, Caki-1 [Continued) e]	TnH ATAC-seq compared with H3K9me3 and H3K4me3 ChIP-seq	enrichment of tagmentation signal over H3K9me3-marked regions, compared among TnH #1-4	scGET-seq pseudobulk compared with H3K9me3 and H3K4me3 ChIP-seq	stated: tagmentation profile follows the H3K9me3 ChIP-seq profile (ATAC-seq, Caki-1)	stated: tagmentation profile follows the H3K9me3 ChIP-seq profile (bulk ATAC-seq with TnH alone and scGET-seq pseudo-bulk, Caki-1) [Continued) g]	stated: tagmentation signal over H3K9me3 ChIP-seq domains (ATAC-seq on permeabilized Caki-1 nuclei)	tagmentation of native chromatin on permeabilized nuclei (ATAC-seq)	stated: no tagmentation signal over H3K9me3 ChIP-seq domains (ATAC-seq on permeabilized Caki-1 nuclei)
TnH #3: 112aaCD (HP1α)-3×(TGS)-Tn5	E0= 0.25	Ec= 0.25	TnH mimicked more closely H3K9me3 data, and to a lesser extent H3K4me3	M0= 0.31	Mc= 0.31	TnH captures both H3K4me3- and H3K9me3-enriched regions, unlike Tn5 which closely matches H3K4me3 profiles	We identified the construct TnH #3, from now on TnH, as the most efficient	TnH was able to target regions positive for H3K9me3 as well as H3K4me3	TnH track (scale 0-15): broad raised signal where the H3K9me3 track has its domains, highest at about 54.5-55.7 Mbp and raised at about 59-62.5 Mbp of Chr.12, where the Tn5 track is near zero; Input (scale 0-10) flat near 0	tnH track (scale 0-15): broad raised signal of about half the scale or more at about 33-35, 36.3-37.5 and 38.0-38.9 Mbp of chr1, over the H3K9me3 domains; tnH pseudobulk track (scale 0-15): the same three domains raised, somewhat lower; both also show small peaks at H3K4me3 positions; Input (scale 0	TnH#3 track (scale 0-8.0): continuous raised signal over the H3K9me3 domain at about 42.4-43.4 Mbp of Chr. 19, where the Tn5 and Nextera tracks are near zero, and lower continuous signal at about 43.8-44.6 Mbp; also sharp peaks at H3K4me3 positions (e.g. about 45.5 Mbp)	hybrid Tn5 constructs indeed cut and inserted oligos in regions enriched for H3K9me3	
TnH #4: 112aaCD (HP1α)-5×(TGS)-Tn5		Ec= -0.55			Mc= 0.07						TnH#4 track (scale 0-2.7): signal above baseline over the H3K9me3 domain at about 42.4-43.4 Mbp of Chr. 19, where the Tn5 and Nextera tracks are near zero; the sharp peaks at H3K4me3 positions stand out more than in TnH#3 and TnH#1	hybrid Tn5 constructs indeed cut and inserted oligos in regions enriched for H3K9me3	
Nextera		Ec= -3.16			Mc= -0.89								Nextera track (scale 0-9.3): near zero over the H3K9me3 domain at about 42.4-43.4 Mbp and only small spikes at about 43.8-44.6 Mbp of Chr. 19; peaks where the H3K4me3 track has peaks
TnH #1: 93aaCD (HP1α)-3×(TGS)-Tn5		Ec= 0.01			Mc= 0.19						TnH#1 track (scale 0-6.6): continuous raised signal over the H3K9me3 domain at about 42.4-43.4 Mbp of Chr. 19, where the Tn5 and Nextera tracks are near zero, and lower continuous signal at about 43.8-44.6 Mbp; also sharp peaks at H3K4me3 positions	hybrid Tn5 constructs indeed cut and inserted oligos in regions enriched for H3K9me3	
TnH #2: 93aaCD (HP1α)-5×(TGS)-Tn5		Ec= -0.41			Mc= 0.07						TnH#2 track (scale 0-7.7): signal above baseline over the H3K9me3 domain at about 42.4-43.4 Mbp of Chr. 19, where the Tn5 and Nextera tracks are near zero; the sharp peaks at H3K4me3 positions stand out more than in TnH#3 and TnH#1	hybrid Tn5 constructs indeed cut and inserted oligos in regions enriched for H3K9me3	
